Experiment: protease stability score; higher = more stable; yeast display proteolysis, trypsin and chymotrypsin;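 note: log10 excess protease needed over predicted unfolded state with 0 meaning unfolded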

DEKDKATKMMETIKQAWDRNNPQQVASQFDKDAHIRVGDKMIHGHEQLKEFVQDVLDTYDHIKLTVTSVKQHNGRVVIVVQVHLEHNGRNDTRHYVVIIEVDNGHIRIKTMVDK
protease stability score: 1.16

DEKDKDVADELRKAYHTGDHNRLREMVDKDVKFQVGDQDYHGRETFMKLNHTERNEIRIEIQSIRVHVHNGRVTVKQVVVREHNGRPTRMQQVLTIDAHNGKIKKMFIKDDQ
protease stability score: 0.069

DEKDLEELAKDVIEAYQDGDEQRLRNNFDKDARWHIGDKTFHGRERNVRHLVEEAKRVDHIHVTTMEVQGNTVRMVLRMNHNGKSDHVDIQITFENGRAQSVTVTKP
protease stability score: 0.369

DEKDMEQQDRVFRHGNEKKLEDLVDEDARVEVGNRRYHGREQVVRFFQQQVKQVDHRTIRSVKLTGDKFDAVLQVVINGQTYTYRFKAKVHNGKVKVLRVEFTDPQREKEFEKQLD
protease stability score: 0.206

DEKDNKTLHKIIRHGDWKKLQDLADENASVDIGNKKFHGRREVSKAMERLREKVDSVQYHSITVEGNSARIVYNLEVNGNRVKVQMKFSMHNGHLQEVVIRATNEEDSKKIDKQLG
protease stability score: 0.724

DEKDNKTYADKVAEMLKHNDPRTARELVDPNAKVQVGDSEVHGREQIENLIKTWNEQVDHVEIKKYRVEGDKVEITFVAESNGKRTHFKVVLKVRNGRATHMTIKRK
protease stability score: 0.157

DEKDQEQILRELAEIMKSGDEHEMENLADENVKVKIGDKTLKGKEQFRHQLKRERDRVDHLKILDMEAQGDRFIIRWQEEFNGQTRRMQVDIHIKNGKIKSAEYRHQ
protease stability score: 0.579

DEKDQTRKAEKAARIFQHGNPDDVREMADEDVKVQIGDNRINGRHNLDTEVKELRDRVDDAKIEDFRASGNTIVLHIRFVVDGVDVHITIHINYHNGKAKRIDVKYTDERQKRRQDS
protease stability score: 0.739

DEKDVEKIMKKMDETFVKGNTEELEKLGKEDVEVQYGDKREKGPDAIRKVLEKVKQLGIKVEYKEVHIKGDTATVKVEADMAGQTARFEVTYVVRGNRVDRVVVKYDEEAQKVIKHG
protease stability score: 0.772

DEKDVEKLQRLIKTGNEDHIANEADPNVQVTIGDDVIHGREEAVRQIQKWQRQVDHVEIKSMESQGEKVHVRRVLTVNGKNFEFTLQAEMHNGTLTHFDIQFRSEEDNKRFLKVVS
protease stability score: 0.32

DEKDVERVLEAIKTNNRSEIRNQADPNARARVGDKKLHGMEDAAHKFAKFLDRADNHEVKDVSVDGDRATMDVKVRVDGEDVRFVVKFQVKNGRITHLEVEATSDHVDRRAEQAMK
protease stability score: 0.581

DEKDVHLARKYYQNFRDGDPDKLKRMADKDAKMSVGDKHLHGMEKIATDLQREHEEMHIDRKIDDVKVNGDKAIVHLKVNINVDGKPTSDSVTVIFKFENGKITTLEYRFDPDKQRKINK
protease stability score: 0.294

DEKDVKTAVKDFNTGSFDRFKDLADKDVTARIGNHTVKGHENFQHMMKNLKDRIDHFDVDSMTIKGNEAQMEYRFEINGHDIVVILRVDIHNGRIKHMEVEFRNEEQKKRFDDNQG
protease stability score: 0.945

DEKDVRILEEYVNAWNTNDPDTLNNLADPNARFKIGNKEFQGRDTLDRLAKQLRKEMRVTVHDVHAKDDDGRVDAKVDAVMHYNGKPNRDTFHFDAKVHNGRIRELNVQFDEKRKKKVDS
protease stability score: -0.065

DEKDVRRLSKYLRALQKNDPDEVRRMADPNAKAEVGDKRIHGRDEFSKHVETRRRQMRITIEHYEIKNQGDKVELNVVRRSEHNGKPRRNSVRATYVFDNGKIHSYSVKHVP
protease stability score: -0.133

DEKEAEHVSRLVRENDFQTLRDQADKDARVRIGDREVHGRERLRSQLHKLERRIDSLEVHRVNNHPNHFHVDVVITVNGQKVTFRLNIHVHNGRIKSIEIEFTDEDQKRNMNEVFS
protease stability score: -0.081

DEKEAKKLLEQFAKKVVNGDYEEVVKHVKDDGEAEYGDERKHGPDAVETFIRKYQKLGIKVTYDEVHVEGDTVTVKVRADYAGQTAHFKFQYHVRDQRLDRVEVKYDETAQKMIKHG
protease stability score: 0.542

DEKEAQKLLEKIAKTMKNGDTETAKKLGKDDVEVKYADDEHHGPDAIKKMLEKLKKLGLEVEYKEIHVEGDTVRVKVQVHHGGTTAHMEVEYQARGRKVDNMRVKYDERAKKLIKHG
protease stability score: 0.471

DEKEDKKVLERMAKLFVSGNKEEVQKMGKDDVEVVYGDETYHGPDAARKVIERVKKLGAKVEYKEVHVEGDTMTAKVEADIAGKRVRFHVTYKATGNRVDRMEVKYTKEAQEVIKHG
protease stability score: 0.895

DEKEDLTRWIEQFVHNLEHGDEERLSQLADPNARFKYGDRTLHGMENAIKTLADVMRRVDQVRIRINDITHHENRVIVDLSFVLNHNGQERHYNAKMVAYIHNGTFRIETASMK
protease stability score: 0.929

DEKEDRKLLQQLAEMFQNGDVERVRKLGKDDVEAEYGDERQHGPDAMKKFVERVKKLGAKVEYKEVHVEGDTVTAKVQADYAGQTVEMHVTYQAQGRRMDRVKVKYDETAQKVIKHG
protease stability score: 0.566

DEKEEAEKFFEQYKHALHRGDPDQMANLADKDVRAEIGDKVVHGRDQLMTYVKTLKEHYDDISLKLKDVQVSGDKAQLHAVLTLNHNGKNDKIHIVIRMVRQGDELVMTSITYR
protease stability score: 0.935

DEKEEAHRALTAMHKMMTGDFKEVMKNADENVHVEIGDKEFHGREDLHDFAREIQERVDDFRVSSVTAKGDSAVLNVRQDYNGRNERVRLEVQVSNGKIKHVRFQTG
protease stability score: -0.341

DEKEEARELMERLREIIETGNEREAKKLADKDARNNVGDKVLHGREEIVRQLITLYKTADHVDLKFRDYRVDNGKFTMDMKVRFHHNGNTIERRYQMSFDTHNGRLTATRYRNS
protease stability score: 1.06

DEKEHATEWLEDWQQQLRTGDEKSVANLFDPNARLNVGDKEVHGREDFEKEQKKIREEADHVDVEIVDLKTSPGHIQMFFNLRQTHNGQRQSHREVMVLRLQGDEVRVVKVEHN
protease stability score: -0.056

DEKEHEDVAQEAVHAVQSGDPKQMVEMADPNARVVVGDKTLHGHDRIEEMVKHLRKRADHVRIIDVQVQGDKVVIRFQVVVDGRTYDVYIDLRVHNGEAKEIRFDPRRQKEMHG
protease stability score: 0.758

DEKEIHEIAETFVEVLRNGNHDDLKELMDENVKLVYGDKELQGHHRAASHLAELVSRVDHMSVDSITVNGDSVKVIMQFVVNGVTAHITIIIKMTNGRIKELEIRYTNEDQRRQVDK
protease stability score: 0.941

DEKEIQKLLEQLMKMFVNGNDEQIKKLGKDDVEATYMDEKVTGPDKVVELVKKYMDLGVKVEYKEEHVEGDKATAKVEADAGGQTVRFHVHYKATGRKMDRVEVQYDETAKKVIKHG
protease stability score: -0.131

DEKEIRKLLETMLKAFVNGNLEVVRKMLKDDGEVEYLDTRRHGPDRAVELVKRLLDLGYEVEYKEVHVKGDTVTANVEANADGKTVRFQVTYQARGRRVDNFKVKYDEDAQKVIKHG
protease stability score: 1.79

DEKEIRKLLQKMAKMFEEGNNEELRKLGDDDLQVTYGDEEYKGPDDLVKVLETVKKLGAKVEYKEVHVEGDTVTVKVEAEMGGRKARYKVKYQADGNKVKRFQVEYSEDAQKAIKEG
protease stability score: 1.28

DEKEKAEDFMRKMQKIAKTNNPTELDDQFDEDAKLVVGDKRYHGRKQMQKHYKELRKRVDHFRLEVKRIDVSGDKVRFDAKYEADVNGRRETVDMRFVVRRVGDKDRAENAQWK
protease stability score: 0.285

DEKEKAKKMFEKWHDVWRTNDPKKMNELADKDARINVGEKNYHGREHVEKIWRDLMERIDHVQLRVQTITSTGDKVEIRATVVIDHNGKQDEDTYVYVFQIDNGTVSFVQVRQS
protease stability score: 0.576

DEKEKLKQLARKFHKAMQTGDEDELKKNVDENVRADYGDRRYHGSEELAKWLREMKTKVDHLSMTIKDIRVKGDRAEIELEMTFDHNGRQETRQFTLQAQVHNGSLKIVQIRQS
protease stability score: 1.32

DEKELKKVLERLVKAFKNGNTEEAKKLGKDDVQVEYGDEKYEGPDAMRTVLERVKKLGYEVEYKEEHYKGDTVTVKVEANLGGRTAKFRFQYQVQGQRVDKVKVEYSETAQKQIKHG
protease stability score: -0.106

DEKELKKVLKTVVEYLKNGKAERVVKHLHDDVQVIYDDEEVHGADKFKEMVEKFQKLGYKVEYKEVHVEGDTATVKVQVDAGGETAEFHVTYQATGQKVDRMEVKYDERAQKVIKHG
protease stability score: 1.14

DEKELNDLKRVVRHGDEDRLEELMDEDVRMKVGNKEISGRSHAVKVMKKLNEKADHIEIKDIKISGEKVVVDLVFEVNGTKIKMRLIIVVRNGKIKHAQIEVTDEEVEDNLHKFLD
protease stability score: 0.972
